{"source": "paper PMC6629373", "about": "“Cryo-EM structure of the rhodopsin-Gαi-βγ complex reveals binding of the rhodopsin C-terminal tail to the gβ subunit” (eLife, 2019)", "binders": {"B1": {"name": "bovine rhodopsin N2C/M257Y/D282C (stabilized, constitutively active mutant) (receptor, UniProt P02699 1-348, looked up)", "chain": "MCGTEGPNFYVPFSNKTGVVRSPFEAPQYYLAEPWQFSMLAAYMFLLIMLGFPINFLTLYVTVQHKKLRTPLNYILLNLAVADLFMVFGGFTTTLYTSLHGYFVFGPTGCNLEGFFATLGGEIALWSLVVLAIERYVVVCKPMSNFRFGENHAIMGVAFTWVMALACAAPPLVGWSRYIPEGMQCSCGIDYYTPHEETNNESFVIYMFVVHFIIPLIVIFFCYGQLVFTVKEAAAQQQESATTQKAEKEVTRMVIIYVIAFLICWLPYAGVAFYIFTHQGSCFGPIFMTIPAFFAKTSAVYNPVIYIMMNKQFRNCMVTTLCCGKNPLGDDEASTTVSKTETSQVAPA", "modifications": "palmitoylation of Cys residues at positions 322 and 323; reconstituted with 9-cis or 11-cis retinal and light-activated", "notes": "rhodopsin, bovine, mutant N2C/M257Y/D282C; Residues 324-335 of the C-tail were modelled in the map; also called the receptor"}}, "target": "T1, human Gαi subunit (Gαi1) with N-terminal deca-histidine tag (human, UniProt P63096 1-354)", "T1 construct": "Gαi1 subunit, human; TEV protease-cleavable tag; source: E. coli BL21 (DE3), purified; not shown: His10, N-terminal, kept", "assay": "cryo-EM structure; rhodopsin-Gi-Fab16 complex; rhodopsin on 1D4 resin mixed with 10xHis-tagged Gi, light-activated, with apyrase, in LMNG; Ni-NTA; Fab16 added in molar excess (1:1.4); SEC in 20 mM HEPES pH 7.5, 150 mM NaCl; Titan Krios, K2; nominal resolution 4.38 Å", "settings": "both partners purified"}
{"binder": "B1", "values": [{"measurement": "binding result", "value": "binds"}]}
